The target of assay [1] is T1, Murine CD86-mIgG (R&D Systems, Inc) (murine, UniProt P42082 24-244, limits assumed).
T1 construct: also called muCD86
T1 sequence (looked up): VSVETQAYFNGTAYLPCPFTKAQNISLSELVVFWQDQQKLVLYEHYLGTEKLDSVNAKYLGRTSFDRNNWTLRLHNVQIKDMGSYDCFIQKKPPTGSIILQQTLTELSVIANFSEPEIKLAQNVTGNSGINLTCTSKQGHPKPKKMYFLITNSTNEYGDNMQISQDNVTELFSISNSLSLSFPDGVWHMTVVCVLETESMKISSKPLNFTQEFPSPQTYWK
The assay can be described thus: SPR (BIAcore T100), murine CD86-mIgG immobilized on CM5; steady-state equilibrium fit. The protocol:
(§1) SPR measurements were performed on a BIAcore™ T100 SPR (Pharmacia Biotech AB, Uppsala) using HBS-EP+ (GE Healthcare) as a running buffer. Murine CD86-mIgG (25 μg/mL in 10 mM sodium acetate, pH 4.0, R&D Systems, Inc) was directly immobilized onto a CM5 chip using standard amine coupling chemistry (Biacore Amine Coupling Kit, GE Healthcare), with final immobilization levels of 150, 493, and 746 Ru. CTLA4-containing constructs were injected for 150 seconds, at a flow rate of 10 μl/min, in a series of concentrations from 4 nM to 8 μM. Dissociation was monitored for 600 seconds (CTLA4 constructs) or 1200 seconds (GL1 constructs), and the surface was regenerated by injecting 10 mM glycine, pH 1.7, for 60 seconds. […] Data were analyzed using BiaEvaluation for the T100 software (version 2.0.1, GE Healthcare).

In assay [2] the target is T1, Murine CD86-mIgG (R&D Systems, Inc). Briefly: SPR (BIAcore T100), murine CD86-mIgG immobilized on CM5; bivalent analyte model, first site. The protocol: as §1
For assay [3] the target is unchanged. The assay can be described thus: SPR (BIAcore T100), murine CD86-mIgG immobilized on CM5; bivalent analyte model, second site. The protocol:
as §1
Background: Surface plasmon resonance follows binding to a sensor surface in real time, without labels.

Assay [4] has as its target T2, CD86-mIgG (Ancell, Inc) (UniProt P42081 24-247, limits assumed).
T2 construct: Bought reagent
T2 sequence (looked up): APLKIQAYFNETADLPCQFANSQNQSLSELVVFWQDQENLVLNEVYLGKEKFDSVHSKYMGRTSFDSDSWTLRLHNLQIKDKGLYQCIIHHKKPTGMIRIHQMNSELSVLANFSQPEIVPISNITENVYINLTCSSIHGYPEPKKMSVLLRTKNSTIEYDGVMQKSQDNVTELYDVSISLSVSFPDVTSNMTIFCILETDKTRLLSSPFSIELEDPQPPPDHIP
The assay can be described thus: SPR (BIAcore T100), CD86-mIgG immobilized on CM5; steady-state equilibrium fit. As to the method: (§2) SPR measurements were performed on a BIAcore™ T100 SPR (Pharmacia Biotech AB, Uppsala) using HBS-EP+ (GE Healthcare) as a running buffer. […] CTLA4-containing constructs were injected for 150 seconds, at a flow rate of 10 μl/min, in a series of concentrations from 4 nM to 10 μM. Dissociation was monitored for 600 seconds, and the surface was either regenerated by injecting 50 mM sodium citrate, 500 mM sodium chloride, pH 5.0, for 60 seconds (wild type CTLA4) or 10 mM glycine, pH 1.7 (L104E A29Y CTLA4). […] Data were analyzed using BiaEvaluation for the T100 software (version 2.0.1, GE Healthcare).
(§3) SPR measurements were performed as listed above, with the following exceptions: HBS-P+ (GE Healthcare) was used as a running buffer; dissociation was monitored for 1200 seconds; and the surface was regenerated by injecting 10 mM glycine, pH 1.7, for 60 seconds.

The target in assay [5] is T2, CD86-mIgG (Ancell, Inc). The assay can be described thus: SPR (BIAcore T100), CD86-mIgG immobilized on CM5; first site. As to the method: as §2, §3
In assay [6] the target is T2, CD86-mIgG (Ancell, Inc). Briefly: SPR (BIAcore T100), CD86-mIgG immobilized on CM5; second site. As to the method: as §2, §3

B1: GL1 SMIP (Fc fusion)
chain: EVQLVESAGGLVQPGRSLKLSCAASGFTFSDYYMAWVRQAPTKGLEWVATISHDGSSTYYRDSVKGRFTISRDNAKTILYLQMDSLRSEDTATYFCARQNIMDYWGQGVMVTVSSGGGGSGGGGSGGGGSGGGGSDIVMTQTPSSQAVSAGEKVTMSCKSSQSLLYSRDQSNYLAWYQQKPGQSPKLLIYLASTRESGVPDRFIGSGSGTDFTLTISSVQAEDLADYYCQQHYNYPLTFGSGTKLEIKLEPKSSDKTHTCPPCPAPEAAGAPSVFLFPPKPKDTLMISRTPEVTCVVVDVSHEDPEVKFNWYVDGVEVHNAKTKPREEQYNSTYRVVSVLTVLHQDWLNGKAYACAVSNKALPAPIEKTISKAKGQPREPQVYTLPPSRDELTKNQVSLTCLVKGFYPSDIAVEWESNGQPENNYKTTPPVLDSDGSFFLYSKLTVDKSRWQQGNVFSCSVMHEALHNHYTQKSLSLSPG
notes: SMIP containing a single-chain GL1 antibody fragment
In the case of B1, the Kd (in general, the free concentration of one partner at which half of the binding sites on the other are occupied at equilibrium, for simple one-to-one binding) in assay [1] worked out at 26.2 nM. In assay [2], the koff (usually the first-order rate constant of dissociation) was 6.2e-05 s⁻¹ and the on-rate constant (kon) – broadly, the rate constant with which the complex forms – came out at 118000 M⁻¹ s⁻¹. Moreover, in assay [3], the “Second Site ka” value amounted to 0.00964 s⁻¹ and the “Second Site kd” value stood at 0.0185 s⁻¹.

B2: GL1 mAb (parent rat anti-murine CD86 monoclonal antibody) (antibody, V domains shown)
VH: EVQLVESAGGLVQPGRSLKLSCAASGFTFSDYYMAWVRQAPTKGLEWVATISHDGSSTYYRDSVKGRFTISRDNAKTILYLQMDSLRSEDTATYFCARQNIMDYWGQGVMVTVSS
VL: DIVMTQTPSSQAVSAGEKVTMSCKSSQSLLYSRDQSNYLAWYQQKPGQSPKLLIYLASTRESGVPDRFIGSGSGTDFTLTISSVQAEDLADYYCQQHYNYPLTFGSGTKLEIK
notes: also called GL1 antibody
In assay [1], B2 returned a dissociation constant (Kd) of 37.7 nM. Further, in assay [2], the koff was determined as 0.000106 s⁻¹ and the kon was 78900 M⁻¹ s⁻¹. In assay [3], the “Second Site ka” value amounted to 0.00879 s⁻¹ and the “Second Site kd” value turned out to be 0.00635 s⁻¹.

B3: GL1 PIMS (Fc fusion)
chain: EPKSSDKTHTCPPCPAPEAAGAPSVFLFPPKPKDTLMISRTPEVTCVVVDVSHEDPEVKFNWYVDGVEVHNAKTKPREEQYNSTYRVVSVLTVLHQDWLNGKAYACAVSNKALPAPIEKTISKAKGQPREPQVYTLPPSRDELTKNQVSLTCLVKGFYPSDIAVEWESNGQPENNYKTTPPVLDSDGSFFLYSKLTVDKSRWQQGNVFSCSVMHEALHNHYTQKSLSLSPGNSLFNQEVQIPLTESYSPNSEVQLVESAGGLVQPGRSLKLSCAASGFTFSDYYMAWVRQAPTKGLEWVATISHDGSSTYYRDSVKGRFTISRDNAKTILYLQMDSLRSEDTATYFCARQNIMDYWGQGVMVTVSSGGGGSGGGGSGGGGSGGGGSDIVMTQTPSSQAVSAGEKVTMSCKSSQSLLYSRDQSNYLAWYQQKPGQSPKLLIYLASTRESGVPDRFIGSGSGTDFTLTISSVQAEDLADYYCQQHYNYPLTFGSGTKLEIK
On to B3, for which, in assay [1], binding was put at a Kd of 78.3 nM. Besides, in assay [2], the koff is 0.000125 s⁻¹ and the kon turned out to be 177000 M⁻¹ s⁻¹. Further, in assay [3], the “Second Site ka” value worked out at 0.0431 s⁻¹ and the “Second Site kd” value stood at 0.0977 s⁻¹.

B4: (IL10 I87A::FUN1-21)-75 xceptor (Fc fusion)
chain: SPGQGTQSENSCTHFPGNLPNMLRDLRDAFSRVKTFFQMKDQLDNLLLKESLLEDFKGYLGCQALSEMIQFYLEEVMPQAENQDPDAKAHVNSLGENLKTLRLRLRRCHRFLPCENKSKAVEQVKNAFNKLQEKGIYKAMSEFDIFINYIEAYITMKIRNLEPKSSDKTHTCPPCPAPEAAGAPSVFLFPPKPKDTLMISRTPEVTCVVVDVSHEDPEVKFNWYVDGVEVHNAKTKPREEQYNSTYRVVSVLTVLHQDWLNGKAYACAVSNKALPAPIEKTISKAKGQPREPQVYTLPPSRDELTKNQVSLTCLVKGFYPSDIAVEWESNGQPENNYKTTPPVLDSDGSFFLYSKLTVDKSRWQQGNVFSCSVMHEALHNHYTQKSLSLSPGQRHNNSSLNTGTQMAGHSPNSQVQLVQSGAEVKKPGASVKVSCKASGYTFTDYNMNWVRQAPGQGLEWMGNIDPYYGGTSYNQKFKGRVTMTRDTSISTAYMELSRLRSDDTAVYYCARWDYRYDDGRAYYVMDFWGQGTTVTVSSGGGGSGGGGSGGGGSGGGGSDIVMTQSPDSLAVSLGERATINCKSSQSVLYSSNQKNYLAWYQQKPGQPPKLLIYWASTRESGVPDRFSGSGSGTDFTLTISSLQAEDVAVYYCHQYLYSWTFGQGTKLEIKR
With B4, in the assay with CD86-mIgG (Ancell, Inc) [4], the dissociation constant (Kd) amounted to 88.5 nM. In addition, in the assay with CD86-mIgG (Ancell, Inc) [5], the off-rate (koff) is 0.000433 s⁻¹ and the kon was 40700 M⁻¹ s⁻¹. Also, in the assay with CD86-mIgG (Ancell, Inc) [6], the “Second Site ka” value was found to be 0.0198 s⁻¹ and the “Second Site kd” value amounted to 0.0579 s⁻¹.

B5: (monoIL10-A2 hinge::FUN1-21)-75 xceptor (Fc fusion)
chain: SPGQGTQSENSCTHFPGNLPNMLRDLRDAFSRVKTFFQMKDQLDNLLLKESLLEDFKGYLGCQALSEMIQFYLEEVMPQAENQDPDIKAHVNSLGENLKTLRLRLRRCHRFLPCENGGGSGGKSKAVEQVKNAFNKLQEKGIYKAMSEFDIFINYIEAYITMKIRNLEPPPPPCPPCPAPEAAGAPSVFLFPPKPKDTLMISRTPEVTCVVVDVSHEDPEVKFNWYVDGVEVHNAKTKPREEQYNSTYRVVSVLTVLHQDWLNGKAYACAVSNKALPAPIEKTISKAKGQPREPQVYTLPPSRDELTKNQVSLTCLVKGFYPSDIAVEWESNGQPENNYKTTPPVLDSDGSFFLYSKLTVDKSRWQQGNVFSCSVMHEALHNHYTQKSLSLSPGQRHNNSSLNTGTQMAGHSPNSQVQLVQSGAEVKKPGASVKVSCKASGYTFTDYNMNWVRQAPGQGLEWMGNIDPYYGGTSYNQKFKGRVTMTRDTSISTAYMELSRLRSDDTAVYYCARWDYRYDDGRAYYVMDFWGQGTTVTVSSGGGGSGGGGSGGGGSGGGGSDIVMTQSPDSLAVSLGERATINCKSSQSVLYSSNQKNYLAWYQQKPGQPPKLLIYWASTRESGVPDRFSGSGSGTDFTLTISSLQAEDVAVYYCHQYLYSWTFGQGTKLEIKR
notes: also called monoIL10::FUN1-21
Regarding B5, the Kd in the assay with CD86-mIgG (Ancell, Inc) [4] came to 178 nM. Moreover, in the assay with CD86-mIgG (Ancell, Inc) [5], the koff was 0.000344 s⁻¹ and the kon came out at 12600 M⁻¹ s⁻¹. Further, in the assay with CD86-mIgG (Ancell, Inc) [6], the “Second Site ka” value stood at 0.011 s⁻¹ and the “Second Site kd” value was 0.0111 s⁻¹.

B6: IL10::FUN1-21 xceptor (Fc fusion)
chain: SPGQGTQSENSCTHFPGNLPNMLRDLRDAFSRVKTFFQMKDQLDNLLLKESLLEDFKGYLGCQALSEMIQFYLEEVMPQAENQDPDIKAHVNSLGENLKTLRLRLRRCHRFLPCENKSKAVEQVKNAFNKLQEKGIYKAMSEFDIFINYIEAYITMKIRNLEPKSSDKTHTCPPCPAPEAAGAPSVFLFPPKPKDTLMISRTPEVTCVVVDVSHEDPEVKFNWYVDGVEVHNAKTKPREEQYNSTYRVVSVLTVLHQDWLNGKAYACAVSNKALPAPIEKTISKAKGQPREPQVYTLPPSRDELTKNQVSLTCLVKGFYPSDIAVEWESNGQPENNYKTTPPVLDSDGSFFLYSKLTVDKSRWQQGNVFSCSVMHEALHNHYTQKSLSLSPGNSLFNQEVQIPLTESYSPNSQVQLVQSGAEVKKPGASVKVSCKASGYTFTDYNMNWVRQAPGQGLEWMGNIDPYYGGTSYNQKFKGRVTMTRDTSISTAYMELSRLRSDDTAVYYCARWDYRYDDGRAYYVMDFWGQGTTVTVSSGGGGSGGGGSGGGGSGGGGSDIVMTQSPDSLAVSLGERATINCKSSQSVLYSSNQKNYLAWYQQKPGQPPKLLIYWASTRESGVPDRFSGSGSGTDFTLTISSLQAEDVAVYYCHQYLYSWTFGQGTKLEIKR
In the assay with CD86-mIgG (Ancell, Inc) [4], B6 returned a Kd of 98.6 nM. Also, in the assay with CD86-mIgG (Ancell, Inc) [5], the off-rate constant (koff) was determined as 0.000128 s⁻¹ and the kon was 158000 M⁻¹ s⁻¹. Moreover, in the assay with CD86-mIgG (Ancell, Inc) [6], the “Second Site ka” value amounted to 0.0064 s⁻¹ and the “Second Site kd” value was 0.0387 s⁻¹.

The values are drawn from patent US20120100139A1 (APTEVO RESEARCH AND DEVELOPMENT, published 2012).
